The assay concerns the target Soluble human VCAM-1 IgG fusion protein (immobilized on coverslips) (human) (UniProt P19320). The experiment in a line: cell-based or functional assay.
Sequence of UniProt P19320 (P19320 25-698 limits assumed): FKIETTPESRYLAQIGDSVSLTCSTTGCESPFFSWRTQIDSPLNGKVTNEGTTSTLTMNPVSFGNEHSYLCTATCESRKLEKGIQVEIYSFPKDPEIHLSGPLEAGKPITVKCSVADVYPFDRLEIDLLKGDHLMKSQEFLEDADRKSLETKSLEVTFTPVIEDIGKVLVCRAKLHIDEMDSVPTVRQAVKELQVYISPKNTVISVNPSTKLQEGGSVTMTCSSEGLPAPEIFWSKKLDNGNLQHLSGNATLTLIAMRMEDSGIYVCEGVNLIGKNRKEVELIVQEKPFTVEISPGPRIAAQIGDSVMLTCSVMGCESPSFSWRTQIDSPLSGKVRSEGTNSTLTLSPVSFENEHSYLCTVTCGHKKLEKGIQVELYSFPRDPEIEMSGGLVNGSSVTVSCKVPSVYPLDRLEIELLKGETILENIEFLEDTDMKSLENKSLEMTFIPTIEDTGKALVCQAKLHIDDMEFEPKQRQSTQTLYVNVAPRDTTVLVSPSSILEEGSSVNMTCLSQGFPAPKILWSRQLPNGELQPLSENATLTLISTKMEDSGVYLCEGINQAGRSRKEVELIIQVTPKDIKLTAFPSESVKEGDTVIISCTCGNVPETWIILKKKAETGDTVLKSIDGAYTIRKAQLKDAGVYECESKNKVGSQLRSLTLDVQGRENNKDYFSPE

For the substance “VLA-4 integrin (on CD4+ naive and memory T cells) (from UniProt P13612 34-1032; P05556 21-798) (receptor)”, the memory CD4+ T cell accumulation on immobilized VCAM-1 under flow; inhibition by pretreatment with CKβ-13 lay in the range of 42 to 72%.

(Values after patent publication US20030143696A1.)
